In publication PMC8395052:

Target: T1, human estrogen receptor-alpha (ERα) fused at its N-terminus with NanoLuc luciferase (Nluc-ERα) or HaloTag (HT-ERα) (human), P03372
T1 chain: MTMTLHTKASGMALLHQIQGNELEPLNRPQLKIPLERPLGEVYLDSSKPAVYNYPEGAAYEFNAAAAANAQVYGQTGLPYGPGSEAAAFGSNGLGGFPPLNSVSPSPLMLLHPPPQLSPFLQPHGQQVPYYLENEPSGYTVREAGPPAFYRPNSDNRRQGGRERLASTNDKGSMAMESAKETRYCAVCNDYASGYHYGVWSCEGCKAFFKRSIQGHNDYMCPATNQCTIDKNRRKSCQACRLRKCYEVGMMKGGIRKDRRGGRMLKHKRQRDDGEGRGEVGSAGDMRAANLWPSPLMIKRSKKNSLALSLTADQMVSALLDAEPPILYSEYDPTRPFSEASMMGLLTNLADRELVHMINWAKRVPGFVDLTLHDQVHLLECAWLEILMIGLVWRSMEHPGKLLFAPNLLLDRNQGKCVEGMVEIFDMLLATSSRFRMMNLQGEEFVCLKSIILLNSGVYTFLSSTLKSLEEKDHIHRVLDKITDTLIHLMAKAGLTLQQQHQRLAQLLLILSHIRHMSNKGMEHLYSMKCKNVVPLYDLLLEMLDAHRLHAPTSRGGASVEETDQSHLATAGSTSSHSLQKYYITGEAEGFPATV
Test: FRET or BRET; NanoBRET in living HEK293 cells co-transfected with Nluc-ERα (donor) and HT-ERα (acceptor), 1:1; HaloTag NanoBRET 618 ligand; cells treated 24 h with E2, 17α-estradiol, diethylhexyl phthalate, bisphenol A or 4-nonylphenol; fold induction of the corrected BRET unit (618 nm/460 nm) over the vehicle control (0.1% DMSO)
Conditions: remark: other sources report otherwise

B1: human estrogen receptor-alpha (ERα) fused at its N-terminus with NanoLuc luciferase (Nluc-ERα) or HaloTag (HT-ERα), P03372 1-595 (receptor)
chain: MTMTLHTKASGMALLHQIQGNELEPLNRPQLKIPLERPLGEVYLDSSKPAVYNYPEGAAYEFNAAAAANAQVYGQTGLPYGPGSEAAAFGSNGLGGFPPLNSVSPSPLMLLHPPPQLSPFLQPHGQQVPYYLENEPSGYTVREAGPPAFYRPNSDNRRQGGRERLASTNDKGSMAMESAKETRYCAVCNDYASGYHYGVWSCEGCKAFFKRSIQGHNDYMCPATNQCTIDKNRRKSCQACRLRKCYEVGMMKGGIRKDRRGGRMLKHKRQRDDGEGRGEVGSAGDMRAANLWPSPLMIKRSKKNSLALSLTADQMVSALLDAEPPILYSEYDPTRPFSEASMMGLLTNLADRELVHMINWAKRVPGFVDLTLHDQVHLLECAWLEILMIGLVWRSMEHPGKLLFAPNLLLDRNQGKCVEGMVEIFDMLLATSSRFRMMNLQGEEFVCLKSIILLNSGVYTFLSSTLKSLEEKDHIHRVLDKITDTLIHLMAKAGLTLQQQHQRLAQLLLILSHIRHMSNKGMEHLYSMKCKNVVPLYDLLLEMLDAHRLHAPTSRGGASVEETDQSHLATAGSTSSHSLQKYYITGEAEGFPATV
modifications: here or on the partner: HaloTag NanoBRET 618 ligand on the HaloTag of the acceptor copy; HaloTag NanoBRET 618 ligand on the HaloTag of the acceptor copy
  fold induction of the BRET signal over vehicle control, with 4-nonylphenol: 2.3 fold
  fold induction of the BRET signal over vehicle control, with 17α-estradiol 10^-8 M: 2.7 fold
  fold induction of the BRET signal over vehicle control, with E2 10^-9 M: 2.7 fold
  fold induction of the BRET signal over vehicle control, with bisphenol A 10^-5 M: 5.7 fold
  fold induction of the BRET signal over vehicle control, with diethylhexyl phthalate: 2.3 fold
